The text below walks through data of paper PMC10604876, “Development of Anti-OSCAR Antibodies for the Treatment of Osteoarthritis” (Biomedicines, 2023).

Assay [1] addresses anti-OSCAR antibody D11, human IgG1. The assay can be described thus: BLI; Octet; IgG (5 ug/mL) captured on FAB2G sensor; 4.69-75 nM hOSCAR-Fc or mOSCAR-Fc (two-fold serial dilution) in PBST; 1:1 Langmuir model. (In general: BLI is a label-free optical method that tracks binding on a fibre tip over time.)
The target in assay [2] is T1, human OSCAR extracellular domains fused to human IgG1 Fc (human) (UniProt Q8IYS5).
T1 sequence: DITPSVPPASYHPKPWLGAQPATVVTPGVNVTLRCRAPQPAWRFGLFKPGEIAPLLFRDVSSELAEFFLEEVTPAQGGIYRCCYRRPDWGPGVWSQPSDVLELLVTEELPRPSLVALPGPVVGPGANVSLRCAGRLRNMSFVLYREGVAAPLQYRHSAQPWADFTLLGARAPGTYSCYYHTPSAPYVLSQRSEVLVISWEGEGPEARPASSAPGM
The assay can be described thus: ELISA; serial dilution ELISA of IgG-format antibodies against hOSCAR-Fc and mOSCAR-Fc; EC50. Background: In an ELISA, binding on a coated surface is turned into a signal by an enzyme label.

In assay [3] the target is T2, mouse OSCAR extracellular domains fused to human IgG1 Fc (Mus musculus (Mouse)., UniProt Q8VBT3).
T2 construct: osteoclast-associated receptor (OSCAR), mouse, extracellular domains 'corresponding' to amino acids 19-233 of human OSCAR; also called mOSCAR-Fc; mOSCAR; source: FreeStyle 293F, transfected (pVITRO1), secreted, purified (Protein G-Sepharose)
The description is as above. To be noted: both partners purified.

The target of assay [4] is T2, mouse OSCAR extracellular domains fused …. In words: BLI; Octet; IgG (5 ug/mL) captured on FAB2G sensor; 4.69-75 nM hOSCAR-Fc or mOSCAR-Fc (two-fold serial dilution) in PBST; 1:1 Langmuir model. To be noted: both partners purified.
The target in assay [5] is T3, human OSCAR extracellular domains fused to human IgG1 Fc (Homo sapiens, UniProt Q8IYS5-2).
T3 construct: osteoclast-associated receptor (OSCAR), human, extracellular domains, amino acids 19-233; also called hOSCAR-Fc; hOSCAR; source: FreeStyle 293F, transfected (pVITRO1), secreted, purified (Protein G-Sepharose)
The assay can be described thus: ELISA; serial dilution ELISA of IgG-format antibodies against hOSCAR-Fc and mOSCAR-Fc; EC50. To be noted: both partners purified.

In assay [6] the target is T3, human OSCAR extracellular domains fused …. The assay can be described thus: BLI; Octet; IgG (5 ug/mL) captured on FAB2G sensor; 4.69-75 nM hOSCAR-Fc or mOSCAR-Fc (two-fold serial dilution) in PBST; 1:1 Langmuir model. To be noted: both partners purified.
For assay [7] the target is unchanged. The assay can be described thus: ELISA; serial dilution ELISA of IgG-format antibodies against hOSCAR-Fc and mOSCAR-Fc; EC50. The note with it: both partners purified. The source holds these as a separate data set.

T2 sequence (Q8VBT3 19-231): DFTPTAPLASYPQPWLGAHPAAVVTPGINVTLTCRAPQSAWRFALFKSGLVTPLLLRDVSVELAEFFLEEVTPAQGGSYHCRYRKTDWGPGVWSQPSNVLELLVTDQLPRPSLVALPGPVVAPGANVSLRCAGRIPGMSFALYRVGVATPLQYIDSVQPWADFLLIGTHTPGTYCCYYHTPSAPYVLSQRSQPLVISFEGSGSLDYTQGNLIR

B1: human OSCAR extracellular domains fused to human IgG1 Fc (Fc fusion)
chain: T1 sequence
For orientation: Kd means a measure of binding affinity in units of concentration. Broadly, the koff is the rate constant with which the complex falls apart. Low readings indicate slow dissociation, high ones fast dissociation. In general, kon refers to the second-order rate constant of association. A higher kon goes with faster complex formation. Regarding B1, in assay [1], the Kd worked out at 5.61 nM, the koff is 0.000512 s⁻¹ and the kon was determined as 91300 M⁻¹ s⁻¹.

B2: anti-OSCAR antibody D11, human IgG1 (antibody, V domains shown)
VH: EVQLLESGGGLVQPGGSLRLSCAASGFTFSDYYWTWVRQAPGKGLEWVSGSPVFGAANYAQNFQGRFTISRDNSKNTLYLQMNSLRAEDTAVYYCAKAGFTGGHFDIWGQGTLVTVSS
VL: QSVLTQPPSASGTPGQRVTISCSGSSSNIGNNYVSWYQQLPGTAPKLLIYGNSNRPSGVPNRFSGSKSGTSASLAISGLRSEDEADYYCQSYDSSSWLFGGGTKLTVL
notes: VH before CDR-H3 (clone from a synthetic human scFv library); rest of VH after CDR-H3 and the human IgG1 constant region; light chain of D11; IgG1; Only the CDR-H3 is printed; also called D11 (parent); D11 IgG; source: ExpiCHO, transfected (pcIW3.3), secreted, purified (Protein G)
As usually defined, the EC50 is the concentration at which the effect is half-maximal. Read a high EC50 as a need for much substance. Turning to B2, in assay [2], the EC50 was > 1000 nM. In assay [3], this molecule came in with a half-maximal effective concentration (EC50) of 151 nM. In assay [4], this molecule gave a Kd of 2.87 nM, a koff of 0.000254 s⁻¹ and a kon of 91300 M⁻¹ s⁻¹.

B3: anti-OSCAR antibody D11-B9, human IgG1 (affinity-matured variant of D11) (antibody, V domains shown)
VH: EVQLLESGGGLVQPGGSLRLSCAASGFTFSDYYWTWVRQAPGKGLEWVSGSPVFGAANYAQNFQGRFTISRDNSKNTLYLQMNSLRAEDTAVYYCAKAGIPGHFDIWGQGTLVTVSS
VL: B2 VL
notes: VH before CDR-H3, as the heavy chain of m3; rest of VH after CDR-H3 and the human IgG1 constant region, as the heavy chain of m3; as the light chain of m3 (only CDR-H3 was randomized); IgG1; Only the CDR-H3 is printed; From NNK randomization of residues H98-99 (Kabat); CDR-H3 is one residue shorter than the parent's; also called D11-4-B9; source: ExpiCHO, transfected (pcIW3.3), secreted, purified …
As for B3, the EC50 in assay [5] amounted to 36.8 nM; in assay [3], 0.93 nM; in assay [7], 0.93 nM. Moreover, the Kd in assay [6] was 0.41 nM; in assay [4], 0.22 nM. Moreover, the dissociation rate constant (koff) in assay [6] is 4.15e-05 s⁻¹; in assay [4], 2.59e-05 s⁻¹. Besides, the kon was 101000 M⁻¹ s⁻¹ in assay [6] and 913000 M⁻¹ s⁻¹ in assay [4].
